This data set deals with the molecule itself. Kind of data set: size exclusion chromatography, buffer A + 2 mM CaCl2. From the text: FIG. 9: Site-directed mutagenesis of the SEQ-ID NO:3 fusion protein and its consequences. A previously described mutation (EP3248015 A1) that impairs heterotetramerization of S100A8/S100A9, namely E78A in the S100A9 polypeptide chain, was introduced into the fusion protein. This E78A mutant remains monomeric, even in the presence of CaCl₂.
Site directed mutagenesis was used to introduce the mutation E78A in the S100A9 chain (see EP3248015 A1) of the fusion protein (SEQ ID NO:3). In endogenous calprotectin, this mutation abrogates […] (Leukert N et al. Calcium-dependent tetramer formation of S100A8 and S100A9 is essential for biological activity (2006). J. Mol. Biol. 359: 961-972). Similary, introduction of this mutation into the fusion protein (SEQ-ID NO:3) prevented CaCl₂) dependent dimerization. The S200 size exclusion chromatography of the mutated and non-mutated fusion proteins (SEQ ID NO:3) in buffer A containing 2 mM CaCl₂) was performed as described in Examples 1 and 3 (FIG. 9).
(In general: In gel filtration, larger molecules generally elute earlier.)

B1: recombinant fusion polypeptide (SEQ ID NO:3) (other)
chain: MHHHHHHLEVLFQGPMTCKMSQLERNIETIINTFHQYSVKLGHPDTLNQGEFKELVRKDLQNFLKKENKNEKVIEHIMEDLDTNADKQLSFEEFIMLMARLTWASHEKMHEGDEGPGHHHKPGLGEGTPLEVLFQGPMLTELEKALNSIIDVYHKYSLIKGNFHAVYRDDLKKLLETECPQYIRKKGADVWFKELDINTDGAVNFQEFLILVIKMGVAAHKKSHEESHKE
notes: Single polypeptide, monomer 26.8 kDa, equal to an S100A8/S100A9 heterodimer; It dimerizes in 2 mM CaCl2, equal to the heterotetramer; also called rCAL (Mrp14-Mrp8 fusion)
For B1, the binding result is recorded as “binds”.

The values above are taken from patent US20230074277A1 (BUEHLMANN LABORATORIES, published 2023).
